Target: Transportin-1 (TNPO1) (UniProt Q92973)
Assay: ITC; MicroCal VP-ITC, 28 injections of 8 µl at 25°C; 50 mM Tris-HCl pH 7.5, 150 mM NaCl, 5 mM TCEP, 0.04% NaN3; standard one-site model; which protein was in the syringe is not given

Chain of UniProt Q92973 (Q92973 whole entry): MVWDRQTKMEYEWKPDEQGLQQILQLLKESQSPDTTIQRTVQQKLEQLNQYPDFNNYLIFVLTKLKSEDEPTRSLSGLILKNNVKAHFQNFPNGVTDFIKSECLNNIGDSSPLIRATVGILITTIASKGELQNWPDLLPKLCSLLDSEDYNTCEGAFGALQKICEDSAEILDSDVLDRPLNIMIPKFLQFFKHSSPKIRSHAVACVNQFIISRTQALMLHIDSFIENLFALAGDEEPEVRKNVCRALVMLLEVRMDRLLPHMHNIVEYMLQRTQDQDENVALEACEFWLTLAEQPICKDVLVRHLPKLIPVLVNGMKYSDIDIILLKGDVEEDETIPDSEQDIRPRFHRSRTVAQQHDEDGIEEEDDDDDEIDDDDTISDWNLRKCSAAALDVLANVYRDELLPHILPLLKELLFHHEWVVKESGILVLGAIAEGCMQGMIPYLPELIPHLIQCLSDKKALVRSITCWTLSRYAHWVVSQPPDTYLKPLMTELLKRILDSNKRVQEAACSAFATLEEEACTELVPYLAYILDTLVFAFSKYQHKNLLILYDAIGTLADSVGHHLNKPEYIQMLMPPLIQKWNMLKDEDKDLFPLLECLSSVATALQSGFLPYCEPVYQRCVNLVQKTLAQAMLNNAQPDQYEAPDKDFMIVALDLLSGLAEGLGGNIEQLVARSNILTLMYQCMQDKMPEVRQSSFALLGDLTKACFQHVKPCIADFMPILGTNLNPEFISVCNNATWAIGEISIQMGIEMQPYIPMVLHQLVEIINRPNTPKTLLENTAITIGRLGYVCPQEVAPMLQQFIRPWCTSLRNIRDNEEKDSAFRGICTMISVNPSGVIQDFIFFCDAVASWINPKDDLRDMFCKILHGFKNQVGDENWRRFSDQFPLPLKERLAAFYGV

RG/RGG region of cold-inducible RNA-binding protein (CIRBP-RGG, amino acids 68-137) (from UniProt Q14011 68-137) (domain or fragment)
Kd: 124 nM

— paper PMC8562343
